Target: FUS(1-526)[P525L]-NLUC-FLAG (UniProt P35637 P35637:1-526, P525L)
Assay: competition; competitive nanoBRET vs AF594-JB39; reported as KD (50% dissociation of BRET pair); table prints NLUC-HA, text NLUC-FLAG
Settings: tags: C-terminal NLUC-FLAG; PURExpress
Description: Competitive NanoBRET binding assays were performed with unlabeled oligonucleotides JB40, JB41, and JB42. First, the relative amount of purified protein per volume of bead suspension (based on nluc activity) was determined in 2× binding buffer (200 mM potassium acetate, 40 mM Tris pH 8.0, 2 mM EDTA, 0.02% NP-40, 6 μg/mL BSA, and 1:1000 Promega Nano-Glo luciferase substrate) using an eight-point dilution curve over ˜3.5 orders of magnitude. Alexafluor594-labeled JB39 was diluted into water in opaque white 96-well plates a single concentration, and varying concentrations of JB40, JB41, or JB42, spanning the pM to low μM range were added to a final total volume of 50 μL/well. 50 μL/well of 2× binding buffer containing 10⁶ RLU (relative luminescence units) beads/well was added and plates were shaken for 10 minutes at room temperature. Nanoluciferase activity and BRET were measured in a Glowmax Discover plate reader and KD values, shown in the table below, were calculated using GraphPad Prism.

Chain of FUS(1-526)[P525L]-NLUC-FLAG (P35637 whole entry P525L, one chain of several): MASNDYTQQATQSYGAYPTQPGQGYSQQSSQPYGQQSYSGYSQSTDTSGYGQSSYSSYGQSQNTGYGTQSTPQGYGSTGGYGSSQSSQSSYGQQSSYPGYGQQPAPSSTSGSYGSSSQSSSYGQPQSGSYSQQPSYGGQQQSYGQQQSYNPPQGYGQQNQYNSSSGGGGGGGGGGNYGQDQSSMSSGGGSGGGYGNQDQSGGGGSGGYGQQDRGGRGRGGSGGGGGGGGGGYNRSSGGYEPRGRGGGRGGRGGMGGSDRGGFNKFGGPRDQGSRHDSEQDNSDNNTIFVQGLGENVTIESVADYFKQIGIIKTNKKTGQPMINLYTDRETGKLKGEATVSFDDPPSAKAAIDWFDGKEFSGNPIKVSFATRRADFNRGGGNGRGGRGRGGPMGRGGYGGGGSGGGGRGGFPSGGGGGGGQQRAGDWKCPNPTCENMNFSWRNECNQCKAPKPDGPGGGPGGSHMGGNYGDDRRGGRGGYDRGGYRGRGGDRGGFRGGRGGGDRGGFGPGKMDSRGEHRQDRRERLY

| Binder | IC50 |
| --- | --- |
| CUGCUAGCCUCUGGAUUUGA (ssRNA, full PS) [JB42 (RNA, phosphorothioate)] | 7.2 nM |
| CTGCTAGCCTCTGGATTTGA (ssDNA, full PS) [JB41 (DNA, phosphorothioate)] | 0.4 nM |
